# Assay results from article PMC7203116, “Cryo-electron microscopy reveals two distinct type IV pili assembled by the same bacterium” (Nature Communications, 2020).
# Biological target: the molecule itself
# Experiment: cryo-EM structure; single-particle cryoEM and helical reconstruction (SPRING) of pili isolated from T. thermophilus HB27; wide and narrow filaments boxed separately from the same micrographs; atomic models built de novo
row,Protein,binding result
1,"PilA4, major pilin of Thermus thermophilus HB27 (subunit of the wide type IV pilus) (natural protein, UniProt Q72JC0 7-131, looked up, extra densities attributed to O-linked glycans at Ser59, Ser66 and Ser71; disulphide bond Cys89-Cys124, PilA4, major type IV pilin of Thermus thermophilus HB27; mature pilin of 125 amino acids (Phe1 to Pro125) after cleavage of the class III signal peptide; all residues of the mature protein are in the model PDB 6XXD. numbers count on: the mature protein; Assembled as a helical filament (wide pilus; rise 9.33 Å, twist 92.5°); the deposited model holds 16 identical subunits; also called wide pilus …) FTLIELLIVIAIIAILAAVLIPNLLAARKRANDTVVTAYLNDAVKFQEMYQIDNNSYTSNQAALISLGLKSTPANVTFSIVSASANSYCMIAGHSGGTVWFAATPDKGVYKTNTAVTSSQPESCP",binds
2,"PilA5 (TT_C1836), pilin of Thermus thermophilus HB27 (subunit of the narrow type IV pilus) (natural protein, UniProt Q72GL2 6-116, looked up, extra density attributed to an O-linked glycan at Ser73; disulphide bond Cys60-Cys88, 111 amino acids; all residues of the mature protein are in the model PDB 6XXE. numbers count on: the mature protein; Assembled as a helical filament (narrow pilus; rise 11.26 Å, twist 84.3°); the deposited model holds 16 identical subunits; also called Tt17; narrow pilus subunit; source: endogenous, pili isolated from T. thermophilus HB27 cells (ethanolamine buffer pH 10.5, ammonium sulfate …)) FTLIELAIVIVIIGILVAIAVPRFVDLTDQANQANVDATAAAVRSAYAIATVQAKGIPTCDQVFANPEGGSTSGSTWTSSDNSTTVSCNASADTFTISRGGKTRTLNLTVN",binds
